Assay results taken from patent US20250313646A1 (AUGMENT BIOLOGICS, published 2025).

Experiments:
[1] = biological target: T1, full-length, biotinylated, human CD20 (Acro Biosystems) (human, UniProt P11836 1-297, biotinylated (site not stated)); experiment: BLI (Octet RED96e), biotinylated CD20 on biosensor, antibody at 25 nM
T1 construct: mature; No construct limits or tags are stated for the bought reagent; also called CD20 antigen
T1 sequence (looked up): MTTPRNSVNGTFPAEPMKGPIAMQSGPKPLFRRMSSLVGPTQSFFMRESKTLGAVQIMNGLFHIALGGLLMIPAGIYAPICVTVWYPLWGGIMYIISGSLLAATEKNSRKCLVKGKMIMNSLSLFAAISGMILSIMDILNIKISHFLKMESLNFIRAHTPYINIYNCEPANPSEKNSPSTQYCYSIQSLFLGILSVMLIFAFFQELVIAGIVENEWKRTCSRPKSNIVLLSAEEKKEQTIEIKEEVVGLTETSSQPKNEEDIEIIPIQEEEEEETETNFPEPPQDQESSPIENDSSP

[2] = biological target: T1, full-length, biotinylated, human CD20 …; experiment: BLI (Octet RED96e), biotinylated CD20 on biosensor, antibody at 50 nM
[3] = biological target: T1, full-length, biotinylated, human CD20 …; experiment: BLI (Octet RED96e), biotinylated CD20 on biosensor, antibody at 100 nM

B1: wildtype Rituximab (antibody)
chain 1: not shown
chain 2: QIVLSQSPAILSASPGEKVTMTCRASSSVSYIHWFQQKPGSSPKPWIYATSNLASGVPVRFSGSGSGTSYSLTISRVEAEDAATYYCQQWTSNPPTFGGGTKLEIKRTVAAPSVFIFPPSDEQLKSGTASVVCLLNNFYPREAKVQWKVDNALQSGNSQESVTEQDSKDSTYSLSSTLTLSKADYEKHKVYACEVTHQGLSSPVTKSFNRGEC
- Kd [1]: 0.171 nM
- Kd [2]: 0.169 nM
- Kd [3]: 0.169 nM
